25 sequences from the supplement of paper PMC9233669 can be followed below.

This sample holds only a part of the variants without activity.

One series deals with biotinyl-Ile-oxazolone. The series can be described thus: self-aminoacylation, catalytic enhancement (BIO) (fold over background); higher = more active; k-Seq, kA / k0A0; sequences stand for … in GGGAAUGGAUCCACAUCUACGAAUUC…UUCACUGCAGACUUGACGAAGCUG
A digest of the protocol:
(§1)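 Mutagenized RNA pools with a 21-nt variable region (0.43 μM) were reacted with each biotinyl-aminoacyl-oxazolone at 2–1250 μM for 90 minutes at room temperature, in 50 μL HEPES/NaCl/KCl/MgCl2/CaCl2 buffer containing 5% acetonitrile at pH 6.9–7.0. RNA captured on streptavidin was quantified by triplicate qPCR and by Illumina sequencing. The fraction reacted for each sequence was fit to a pseudo-first-order model with bootstrapping, and catalytic enhancement is the median kA divided by the uncatalyzed rate, taken as the low-activity peak of a bimodal Gaussian fit.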

Another series relates to biotinyl-Leu-oxazolone. The series can be described thus: self-aminoacylation, catalytic enhancement (BLO) (fold over background); higher = more active; k-Seq, kA / k0A0; sequences stand for … in GGGAAUGGAUCCACAUCUACGAAUUC…UUCACUGCAGACUUGACGAAGCUG
A digest of the protocol: as §1

The test system of another series is biotinyl-Phe-oxazolone. The series can be described thus: self-aminoacylation, catalytic enhancement (BFO) (fold over background); higher = more active; k-Seq, kA / k0A0; sequences stand for … in GGGAAUGGAUCCACAUCUACGAAUUC…UUCACUGCAGACUUGACGAAGCUG
A digest of the protocol: as §1

The next series relates to biotinyl-Met-oxazolone. The series can be described thus: self-aminoacylation, catalytic enhancement (BMO) (fold over background); higher = more active; k-Seq, kA / k0A0; sequences stand for … in GGGAAUGGAUCCACAUCUACGAAUUC…UUCACUGCAGACUUGACGAAGCUG
A digest of the protocol: as §1

The subject of a further series is biotinyl-Val-oxazolone. The series can be described thus: self-aminoacylation, catalytic enhancement (BVO) (fold over background); higher = more active; k-Seq, kA / k0A0; sequences stand for … in GGGAAUGGAUCCACAUCUACGAAUUC…UUCACUGCAGACUUGACGAAGCUG
A digest of the protocol:
as §1

The subject of the next series is biotinyl-Trp-oxazolone. The series can be described thus: self-aminoacylation, catalytic enhancement (BWO) (fold over background); higher = more active; k-Seq, kA / k0A0; sequences stand for … in GGGAAUGGAUCCACAUCUACGAAUUC…UUCACUGCAGACUUGACGAAGCUG
A digest of the protocol:
as §1

Take “CCACACUUCAAGCUAUCGGUU [Fam1B.1 aminoacylation ribozyme variant]”: the self-aminoacylation was determined as 1.29 in the series on biotinyl-Ile-oxazolone; 1.12 in the series with biotinyl-Leu-oxazolone; 0.942 in the series on biotinyl-Phe-oxazolone; 1.18 with biotinyl-Met-oxazolone; 1.43 in the series with biotinyl-Val-oxazolone; 0.897 with biotinyl-Trp-oxazolone.

On to “AUUCACGUACGUCAUCGGGUG [Fam2.2 aminoacylation ribozyme variant]”, for which the self-aminoacylation with biotinyl-Ile-oxazolone turned out to be 6.46; in the series with biotinyl-Leu-oxazolone, 12.8; with biotinyl-Phe-oxazolone, 79.8; with biotinyl-Met-oxazolone it was 12.2; with biotinyl-Val-oxazolone it was 6.9; in the series with biotinyl-Trp-oxazolone, 9.47.

“AUUACCCUGUUAAUCGAGUGA [Fam2.1 aminoacylation ribozyme variant]”: the self-aminoacylation in the series on biotinyl-Ile-oxazolone came to 4.91; in the series on biotinyl-Leu-oxazolone it was 9.68; in the series on biotinyl-Phe-oxazolone, 54.5; in the series with biotinyl-Met-oxazolone it was 9.91; in the series on biotinyl-Val-oxazolone, 5.36; with biotinyl-Trp-oxazolone, 13.4.

On to “GUUACCCCGGUCAUCGAGUGA [Fam2.1 aminoacylation ribozyme variant]”, for which the self-aminoacylation with biotinyl-Ile-oxazolone was 3.82; with biotinyl-Leu-oxazolone, 7.66; with biotinyl-Phe-oxazolone, 45.8; with biotinyl-Met-oxazolone, 6.95; in the series with biotinyl-Val-oxazolone it was 3.38; in the series on biotinyl-Trp-oxazolone it was 8.27.

Regarding “CCACACUUCGAGUAAUCGGUC [Fam1B.1 aminoacylation ribozyme variant]”, the self-aminoacylation is 0.822 in the series with biotinyl-Ile-oxazolone; 0.78 in the series with biotinyl-Leu-oxazolone; 0.641 with biotinyl-Phe-oxazolone; 0.958 in the series with biotinyl-Met-oxazolone; 0.893 with biotinyl-Val-oxazolone; 0.789 in the series with biotinyl-Trp-oxazolone.

With “AAGUUUGCUAAUAGUCGCAAG [Fam3.1 aminoacylation ribozyme variant]”, the self-aminoacylation was 1.33 in the series with biotinyl-Ile-oxazolone; 1.01 in the series with biotinyl-Leu-oxazolone; 32 with biotinyl-Phe-oxazolone; 1.47 in the series with biotinyl-Met-oxazolone; 1.15 in the series with biotinyl-Val-oxazolone; 7.99 with biotinyl-Trp-oxazolone.

Regarding “CCACCCUUCAAGCACUCGGUC [Fam1B.1 aminoacylation ribozyme variant]”, the self-aminoacylation is 1.54 with biotinyl-Ile-oxazolone; 1.15 in the series on biotinyl-Leu-oxazolone; 0.826 in the series with biotinyl-Phe-oxazolone; 1.14 with biotinyl-Met-oxazolone; 1.68 in the series with biotinyl-Val-oxazolone; 1.46 in the series on biotinyl-Trp-oxazolone.

For the sequence “AAGUUUGUUAGUAGUCGCAAG [Fam3.1 aminoacylation ribozyme variant]”, the self-aminoacylation in the series on biotinyl-Ile-oxazolone was 0.852; in the series on biotinyl-Leu-oxazolone it was 1.06; with biotinyl-Phe-oxazolone, 1.02; in the series on biotinyl-Met-oxazolone it was 0.841; with biotinyl-Val-oxazolone, 0.823; in the series with biotinyl-Trp-oxazolone, 0.675.

As to “AUUCACCUAGGUCAUGGGGUU [Fam2.2 aminoacylation ribozyme variant]”, the self-aminoacylation was found to be 1.5 in the series on biotinyl-Ile-oxazolone; 1.52 in the series on biotinyl-Leu-oxazolone; 0.983 with biotinyl-Phe-oxazolone; 1.68 in the series with biotinyl-Met-oxazolone; 1.58 in the series with biotinyl-Val-oxazolone; 1.51 in the series on biotinyl-Trp-oxazolone.

“AAGUUUGGUAAUAGUCGCAGG [Fam3.1 aminoacylation ribozyme variant]”: the self-aminoacylation with biotinyl-Ile-oxazolone was determined as 1.47; with biotinyl-Leu-oxazolone, 1.7; in the series on biotinyl-Phe-oxazolone, 2.19; in the series with biotinyl-Met-oxazolone, 1.39; in the series on biotinyl-Val-oxazolone it was 1.4; in the series on biotinyl-Trp-oxazolone it was 2.18.

“AUUCACCUAGGUUAACGGGUG [Fam2.2 aminoacylation ribozyme variant]”: the self-aminoacylation with biotinyl-Ile-oxazolone turned out to be 2; in the series with biotinyl-Leu-oxazolone, 3.22; in the series on biotinyl-Phe-oxazolone, 24.8; in the series on biotinyl-Met-oxazolone it was 2.55; in the series on biotinyl-Val-oxazolone, 2.1; in the series with biotinyl-Trp-oxazolone, 2.83.

With “UAGUUUGCUAAUAGUCGCUAG [Fam3.1 aminoacylation ribozyme variant]”, the self-aminoacylation in the series on biotinyl-Ile-oxazolone is 1.18; with biotinyl-Leu-oxazolone it was 1.13; in the series on biotinyl-Phe-oxazolone, 1.68; in the series with biotinyl-Met-oxazolone, 1.01; in the series on biotinyl-Val-oxazolone, 1.13; in the series on biotinyl-Trp-oxazolone, 1.08.

As to “AUUAUCCUGGGCAUCGAGUGA [Fam2.1 aminoacylation ribozyme variant]”, the self-aminoacylation came to 3.07 in the series with biotinyl-Ile-oxazolone; 6.24 in the series with biotinyl-Leu-oxazolone; 36.3 with biotinyl-Phe-oxazolone; 5.87 in the series with biotinyl-Met-oxazolone; 2.94 in the series on biotinyl-Val-oxazolone; 6.86 with biotinyl-Trp-oxazolone.

In the case of “AAUCACCUAGGUCAUCGGGUU [Fam2.2 aminoacylation ribozyme variant]”, the self-aminoacylation in the series with biotinyl-Ile-oxazolone turned out to be 4.1; with biotinyl-Leu-oxazolone, 6.71; with biotinyl-Phe-oxazolone it was 11.5; with biotinyl-Met-oxazolone, 5.39; with biotinyl-Val-oxazolone, 3.65; in the series on biotinyl-Trp-oxazolone, 5.39.

With “AAGUUUGCUAAUGGGCGCAAG [Fam3.1 aminoacylation ribozyme variant]”, the self-aminoacylation in the series with biotinyl-Ile-oxazolone amounted to 0.937; in the series with biotinyl-Leu-oxazolone, 1.08; in the series with biotinyl-Phe-oxazolone it was 0.784; with biotinyl-Met-oxazolone it was 0.695; in the series with biotinyl-Val-oxazolone it was 0.874; with biotinyl-Trp-oxazolone it was 1.5.

Regarding “CUACUUCAAACAAUCGUUGUG [Fam1A.1 aminoacylation ribozyme variant]”, the self-aminoacylation with biotinyl-Ile-oxazolone turned out to be 1.17; with biotinyl-Leu-oxazolone it was 1.7; in the series with biotinyl-Phe-oxazolone, 1.69; in the series with biotinyl-Met-oxazolone it was 1.68; in the series with biotinyl-Val-oxazolone, 1.15; in the series with biotinyl-Trp-oxazolone, 1.38.

Turning to “AAGUUCGCUAAUGGUCGCAAG [Fam3.1 aminoacylation ribozyme variant]”, the self-aminoacylation in the series on biotinyl-Ile-oxazolone amounted to 1.55; in the series with biotinyl-Leu-oxazolone it was 1.8; in the series with biotinyl-Phe-oxazolone, 4.06; with biotinyl-Met-oxazolone, 1.33; in the series on biotinyl-Val-oxazolone, 1.5; in the series on biotinyl-Trp-oxazolone, 1.62.

Consider “AAGUUUGAUAAUAGUCCCAAG [Fam3.1 aminoacylation ribozyme variant]”, for which the self-aminoacylation in the series with biotinyl-Ile-oxazolone worked out at 0.613; with biotinyl-Leu-oxazolone, 0.423; in the series with biotinyl-Phe-oxazolone it was 0.838; with biotinyl-Met-oxazolone it was 0.47; with biotinyl-Val-oxazolone, 0.515; in the series with biotinyl-Trp-oxazolone, 0.489.

In the case of “AUUACCCUAGUCAUCGAGUAA [Fam2.1 aminoacylation ribozyme variant]”, the self-aminoacylation with biotinyl-Ile-oxazolone came to 1.28; in the series with biotinyl-Leu-oxazolone, 1.19; with biotinyl-Phe-oxazolone it was 0.698; with biotinyl-Met-oxazolone, 1.36; with biotinyl-Val-oxazolone, 1.24; in the series with biotinyl-Trp-oxazolone, 0.823.

Consider “AUCACCCUGGUCAUCGAGUGU [Fam2.1 aminoacylation ribozyme variant]”, for which the self-aminoacylation in the series with biotinyl-Ile-oxazolone is 7.23; in the series with biotinyl-Leu-oxazolone, 21.5; in the series on biotinyl-Phe-oxazolone, 94.9; with biotinyl-Met-oxazolone, 22.5; in the series with biotinyl-Val-oxazolone, 8.64; in the series on biotinyl-Trp-oxazolone, 20.2.

Consider “AUUACCCCGGUCAGCGAGUGA [Fam2.1 aminoacylation ribozyme variant]”, for which the self-aminoacylation with biotinyl-Ile-oxazolone amounted to 3.32; in the series with biotinyl-Leu-oxazolone, 4.92; in the series with biotinyl-Phe-oxazolone, 31.4; in the series with biotinyl-Met-oxazolone, 4.82; in the series with biotinyl-Val-oxazolone, 3.28; with biotinyl-Trp-oxazolone, 5.45.

Turning to “AUUCACCUAGGGCACCGGGUG [Fam2.2 aminoacylation ribozyme variant]”, the self-aminoacylation was 3.58 in the series on biotinyl-Ile-oxazolone; 4.66 with biotinyl-Leu-oxazolone; 23.3 with biotinyl-Phe-oxazolone; 4.01 in the series on biotinyl-Met-oxazolone; 3.88 with biotinyl-Val-oxazolone; 3.62 with biotinyl-Trp-oxazolone.

Turning to “CCACACUUCAAGCAAUCAGUG [Fam1B.1 aminoacylation ribozyme variant]”, the self-aminoacylation in the series on biotinyl-Ile-oxazolone was found to be 3; with biotinyl-Leu-oxazolone, 4.36; in the series with biotinyl-Phe-oxazolone it was 6.8; in the series with biotinyl-Met-oxazolone, 3.58; in the series with biotinyl-Val-oxazolone, 2.83; in the series on biotinyl-Trp-oxazolone, 2.99.

Turning to “AAGUUUGCUACUAGUCCCAAG [Fam3.1 aminoacylation ribozyme variant]”, the self-aminoacylation in the series with biotinyl-Ile-oxazolone came out at 0.894; in the series with biotinyl-Leu-oxazolone, 0.899; in the series on biotinyl-Phe-oxazolone, 0.773; in the series on biotinyl-Met-oxazolone, 0.931; in the series with biotinyl-Val-oxazolone, 0.759; in the series on biotinyl-Trp-oxazolone, 0.786.

For the sequence “AGGUUUGCUACUAGUCGCAAG [Fam3.1 aminoacylation ribozyme variant]”, the self-aminoacylation in the series with biotinyl-Ile-oxazolone is 1.35; in the series with biotinyl-Leu-oxazolone it was 1.84; in the series on biotinyl-Phe-oxazolone it was 2.49; in the series with biotinyl-Met-oxazolone, 1.55; in the series on biotinyl-Val-oxazolone it was 1.69; with biotinyl-Trp-oxazolone, 1.77.
